Measurements as given in US10052364B2, “Osteocalcin as a treatment for cognitive disorders” (THE TRUSTEES OF COLUMBIA UNIVERSITY IN THE CITY OF NEW YORK, priority 2013, dated 2018).

What was measured:
[1] = system: neurons in the brain (WT brain sections); experiment: Binding of biotinylated osteocalcin to brain sections (anti-biotin immunofluorescence, competition); design: species or system mouse
Method: FIG. 3. Osteocalcin binds to neurons in the brain. (A) Measurement of the total osteocalcin in 3 month-old Osteocalcin^−/− mice infused subcutaneously for 7 days with either uncarboxylated osteocalcin (300 ng/hour, right panel) or PBS (left panel). Osteocalcin levels were measured in bone, serum, and different parts of the brain (cortex, midbrain, hypothalamus, brainstem, and cerebellum). (B) Subcutaneous infusion of leptin ([…], right panel) or PBS (left panel) for 7 days in ob/ob mice. Leptin levels were measured in serum, cortex, midbrain, hypothalamus, brainstem, and cerebellum. (C) Binding of GST-biotin (30 μg/ml) (panel 1) and biotinylated osteocalcin (300 ng/ml) (panels 2-4) to the dorsal (DR) and median (MR) raphe nuclei of the brainstem (identified by anti-5-HT immunofluorescence), to the ventral tegmental area (VTA) of the midbrain (identified by anti-TH immunofluorescence), and to the CA3 and CA4 of the hippocampus (identified anatomically). […] Binding with GST-biotin, osteocalcin-biotinylated, and competition assays were performed on adjacent sections. (D) Expression of Tph2 and GAD 1 in brainstem, and Th in midbrain explants from WT and Gprc6a^−/− mice, treated with 10 ng/ml osteocalcin or vehicle. (E) Gene expression in WT primary hindbrain neuron cultures treated with 10 ng/ml osteocalcin or vehicle. (F) Calcium flux response of primary hindbrain cultured neurons to osteocalcin treatment. (G-H) Extracellular current recordings of (G) neurons of the dorsal raphe nucleus and (H) GABAergic interneurons of the brainstem treated with osteocalcin (10 ng/ml).
Brains from 8-week-old mice were snap-frozen in isopentane, and […] thick sections were prepared and desiccated overnight at 4° C. under vacuum. On the following day, sections were rehydrated in ice-cold binding buffer (50 mM TrisHCl [pH 7.4], 10 mM MgCl2, 0.1 mM EDTA and 0.1% BSA) for 15 min and incubated for 1 hr in the presence of biotinylated osteocalcin (3, 30, 300, 3000 ng/ml) or biotynylated recombinant GST as a control ([…]). After washing in harvesting buffer (50 mM Tris-HCl, pH 7.4), samples were fixed in 4% paraformaldehyde for 15 min, washed in PBS and incubated with goat anti-biotin antibody (1:1000, Vector laboratories) over night at 4° C. Signal was visualized by incubating with anti-goat IgG Cy-3 using Leica DM 5000B microscope (Leica). The binding assays were perform on adjacent sections for each conditions tested.
This accumulation in discrete regions of the brain raised the question of whether osteocalcin binds to specific neurons in the brain. This was tested by incubating sections of adult or embryonic (E18.5) WT brains with biotinylated undercarboxylated osteocalcin or GST-biotin alone (30 μg/ml), followed by immunofluorescence analysis using an anti-biotin antibody. […]

[2] = system: mouse primary hindbrain neurons (MPHN); experiment: Gene expression in cultured mouse primary hindbrain neurons; assay type: cell-based; conditions: osteocalcin 3 ng/ml, 2 or 4 hours, WT and Gprc6a-/-
Method: (§1) For gene expression studies, RNA was isolated from primary neurons or tissue using TRIZOL® (Invitrogen). cDNA synthesis was performed following a standard protocol from Invitrogen and qPCR analyses were done using specific quantitative PCR primers from SABiosciences (www.sabiosciences.com/RT2PCR.php).
For primary culture of hindbrain neurons, E14.5 embryos were obtained from matings of 129-Sv WT mice. Hindbrains were dissected out and collected in ice-cold filter sterilized HBSS buffered with 10 mM HEPES until dissection was complete, at which point they were finely chopped into 2 mm cubes, dissociated by trituration with a fire-polished Pasteur pipette and spun down at 4° C. Cells were then plated onto poly-D-lysine coated coverslips or dishes in Neurobasal medium supplemented with 2% B27, 0.25 mM Glutamax, 0.25 mM L-glutamine, penicillin G (50 U/ml), and streptomycin sulphate ([…]). Cultures were fed every 3-6 days with one half replacement medium without L-glutamine.
To determine if osteocalcin acts directly on neurons to modulate neurotransmitter synthesis, several types of assays were performed. First, brainstem and midbrain explants from WT and Gprc6a^−/− mice were generated. […] Third, to further confirm that osteocalcin signals in neurons of the hindbrain, calcium flux in MPHN treated with undercarboxylated or carboxylated osteocalcin (FIG. 3F) was measured. […]

[3] = system: brainstem and midbrain explants from WT and Gprc6a-/- mice; experiment: Gene expression (qPCR) in brainstem and midbrain explants; assay type: cell-based, mouse
Method: as §1
Brains were dissected and incubated for 30 minutes in ice cold oxygenated artificial cerebrospinal fluid (ACSF). Brains were then sliced at 500 μm at the midbrain, −1.55 to −2.35 mm from the bregma, and at the level of the brainstem, from −4.04 to −4.48 mm and from −4.60 to −5.20 mm from the bregma, to include the median and dorsal raphe, respectively. These slices were incubated in ACSF for 1 h, constantly oxygenated (95% 02 and 5% CO2) for 4 h, after which they were treated with either osteocalcin (10 ng/ml) or PBS for four hours. Expression of Tph2, TH, GAD1, GAD2, and Ddc was measured by qPCR.
To determine if osteocalcin acts directly on neurons to modulate neurotransmitter synthesis, several types of assays were performed. First, brainstem and midbrain explants from WT and Gprc6a^−/− mice were generated. Brains were sliced (500 μm) at the level of the median and dorsal raphe of the brainstem (from −4.04 to −4.48 mm and from −4.60 to −5.20 mm, respectively), so that they would be enriched in serotonin-producing neurons, as well as at the level of substantia nigrae and ventral tegmental areas (VTA) of the midbrain (from −1.55 to −2.35 mm and from −2.55 to −3.25 mm, respectively). Enrichment in serotoninergic and catecholaminergic neurons in these explants was verified by their high Tph2 and Th expression. While leptin, used here as a positive control, reduced, as it should, Tph2 expression in WT or Gprc6a^−/− brainstem explants, osteocalcin (3 ng/ml) increased expression of this gene 2.5 fold in both WT and Gprc6a^−/− explants. (FIG. 3D). Additionally, osteocalcin increased Th expression in midbrain explants and decreased Gad1 expression in both WT and in Gprc6a^−/− hindbrain explants (FIG. 3D). Second, the cultured WT and Gprc6a^−/− mouse primary hindbrain neurons (MPHN) were treated with osteocalcin (3 ng/ml). […] Third, to further confirm that osteocalcin signals in neurons of the hindbrain, calcium flux in MPHN treated with undercarboxylated or carboxylated osteocalcin (FIG. 3F) was measured. […] Moreover, osteocalcin inhibits the action potential frequency of the GABAergic interneurons of the hindbrain (FIG. 3H).

[4] = biotinylated undercarboxylated osteocalcin, WT brain sections

- binding in the brainstem [1, 4]: bound to neurons of the raphe nuclei
- specificity of binding in the midbrain and brainstem (competition) ([1]; excess of unlabeled osteocalcin versus excess of GST): specific
B1: uncarboxylated osteocalcin: Recombinant osteocalcin bacterially produced, cleaved from the GST subunit; completely undercarboxylated at all three sites (protein, listed as Homo sapiens)
chain: MRALTLLALLALAALCIAGQAGAKPSGAESSKGAAFVSKQEGSEVVKRPRRYLYQWLGAPVPYPDPLEPRREVCELNPDCDELADHIGFQEAYRRFYGPV
modifications: uncarboxylated
notes: Recombinant osteocalcin bacterially produced, cleaved from the GST subunit; completely undercarboxylated at all three sites
- binding in the midbrain [1, 4]: bound to the ventral tegmental area and the substantia nigrae
- binding to neuronal populations of the brain ([1]; biotinylated undercarboxylated osteocalcin, adult or E18.5 WT brain sections): bound to several neuronal populations in the forebrain, midbrain, and brainstem
- GA' expression decrease in primary brainstem neuronal culture [2]: 65%
- Tph2 expression in primary brainstem neuronal culture [2]: increased more than three-fold
- Tph2 expression in brainstem explants ([3]; osteocalcin 3 ng/ml, WT and Gprc6a-/- explants): 2.5 fold
- Gad1 expression in hindbrain explants ([3]; osteocalcin, WT and Gprc6a-/- hindbrain explants): decreased
- Th expression in midbrain explants ([3]; osteocalcin, midbrain explants): increased
